Results reported in patent publication USRE39433 (MEDVET SCIENCE, dated 2006).

Legend:
[1] = biological target: IL-3R α-chain co-expressed with T419A βc on COS cells (human) (UniProt P26951); assay: Scatchard (LIGAND) of 125I-IL-3 on COS cells with α-chains and T419A βc; high affinity site 1
[2] = biological target: IL-3R α-chain co-expressed with R418A βc on COS cells (human) (UniProt P26951); assay: radioligand saturation binding on transfected COS cells
[3] = biological target: IL-3R α-chain co-expressed with mutant ^418AAAYA^422 βc on COS cells (human) (UniProt P26951); assay: as above
IL-3R α-chain co-expressed with mutant ^418AAAYA^422 βc on COS cells (human), sequence (P26951 19-378, stated change not applied, chain 1 of 2): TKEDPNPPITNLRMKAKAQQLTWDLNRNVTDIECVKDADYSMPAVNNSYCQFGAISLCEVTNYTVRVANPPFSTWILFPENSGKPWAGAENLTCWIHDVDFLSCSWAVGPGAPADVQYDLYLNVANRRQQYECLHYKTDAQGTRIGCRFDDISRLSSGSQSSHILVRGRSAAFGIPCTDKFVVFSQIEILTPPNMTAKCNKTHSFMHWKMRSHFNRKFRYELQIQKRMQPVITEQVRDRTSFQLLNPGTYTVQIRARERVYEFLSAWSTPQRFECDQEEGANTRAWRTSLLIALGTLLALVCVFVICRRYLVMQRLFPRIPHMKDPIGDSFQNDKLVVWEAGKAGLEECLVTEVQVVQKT
IL-3R α-chain co-expressed with mutant ^418AAAYA^422 βc on COS cells (human), sequence (P32927 other isoform, or with tags, fused parts or gaps mutant, chain 2 of 2, further chain): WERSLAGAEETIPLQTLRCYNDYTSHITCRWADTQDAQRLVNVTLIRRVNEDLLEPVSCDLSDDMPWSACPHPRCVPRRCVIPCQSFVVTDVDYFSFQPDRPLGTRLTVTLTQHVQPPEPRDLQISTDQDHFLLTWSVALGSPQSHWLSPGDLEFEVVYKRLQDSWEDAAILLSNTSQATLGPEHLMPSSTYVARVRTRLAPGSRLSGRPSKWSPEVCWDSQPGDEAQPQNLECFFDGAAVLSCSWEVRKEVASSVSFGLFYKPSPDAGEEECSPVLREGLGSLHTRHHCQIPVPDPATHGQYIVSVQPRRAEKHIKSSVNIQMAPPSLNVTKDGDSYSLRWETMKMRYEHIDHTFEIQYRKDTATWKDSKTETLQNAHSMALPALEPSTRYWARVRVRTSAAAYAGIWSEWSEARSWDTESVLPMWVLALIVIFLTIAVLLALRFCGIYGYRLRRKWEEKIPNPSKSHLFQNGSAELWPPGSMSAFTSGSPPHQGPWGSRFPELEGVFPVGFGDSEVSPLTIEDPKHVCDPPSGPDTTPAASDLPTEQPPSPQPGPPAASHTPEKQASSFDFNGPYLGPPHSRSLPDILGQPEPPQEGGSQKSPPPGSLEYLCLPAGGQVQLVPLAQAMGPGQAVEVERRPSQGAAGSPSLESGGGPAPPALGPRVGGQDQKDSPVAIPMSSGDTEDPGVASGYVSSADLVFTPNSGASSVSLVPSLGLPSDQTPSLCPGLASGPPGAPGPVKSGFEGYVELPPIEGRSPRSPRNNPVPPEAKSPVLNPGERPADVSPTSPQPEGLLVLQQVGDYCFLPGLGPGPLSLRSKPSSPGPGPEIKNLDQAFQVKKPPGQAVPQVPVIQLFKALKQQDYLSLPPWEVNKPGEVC

[4] = biological target: IL-3R α-chain co-expressed with G420A βc on COS cells (human) (UniProt P26951); assay: Scatchard (LIGAND) of 125I-IL-3 on COS cells with α-chains and G420A βc; high affinity site 1
IL-3R α-chain co-expressed with G420A βc on COS cells (human), sequence (P26951 19-378, chain 1 of 2): as the sequence (P26951 19-378, stated change not applied, chain 1 of 2) above
IL-3R α-chain co-expressed with G420A βc on COS cells (human), sequence (P32927 17-897 G420A, chain 2 of 2, further chain): as the sequence (P32927 other isoform, or with tags, fused parts or gaps mutant, chain 2 of 2, further chain) above, with A402R, A403T, A406N counted along it

[5] = biological target: IL-3R α-chain co-expressed with R418A βc on COS cells (human) (UniProt P26951); assay: Scatchard (LIGAND) of 125I-IL-3 on COS cells with α-chains and R418A βc; high affinity site 1
[6] = biological target: IL-3R α-chain co-expressed with Y421A βc on cells (human) (UniProt P26951); assay: cell-based or functional assay
IL-3R α-chain co-expressed with Y421A βc on cells (human), sequence (P26951 19-378, chain 1 of 2): as the sequence (P26951 19-378, stated change not applied, chain 1 of 2) above
IL-3R α-chain co-expressed with Y421A βc on cells (human), sequence (P32927 17-897 Y421A, chain 2 of 2, further chain): as the sequence (P32927 other isoform, or with tags, fused parts or gaps mutant, chain 2 of 2, further chain) above, with A402R, A403T, A404G, Y405A, A406N counted along it

[7] = biological target: IL-3R α-chain co-expressed with N422A βc on COS cells (human) (UniProt P26951); assay: Scatchard (LIGAND) of 125I-IL-3 on COS cells with α-chains and N422A βc; high affinity site 1
IL-3R α-chain co-expressed with N422A βc on COS cells (human), sequence (P26951 19-378, chain 1 of 2): as the sequence (P26951 19-378, stated change not applied, chain 1 of 2) above
IL-3R α-chain co-expressed with N422A βc on COS cells (human), sequence (P32927 17-897 N422A, chain 2 of 2, further chain): as the sequence (P32927 other isoform, or with tags, fused parts or gaps mutant, chain 2 of 2, further chain) above, with A402R, A403T, A404G counted along it

[8] = biological target: IL-3R α-chain co-expressed with mutant ^418AAAYA^422 βc on COS cells (human) (UniProt P26951); assay: Scatchard (LIGAND) of 125I-IL-3 on COS cells with α-chains and ^418AAAYA^422 βc; high affinity site 1
[9] = biological target: IL-5R α-chain co-expressed with mutant ^418AAAYA^422 βc on COS cells (human) (UniProt Q01344); assay: Scatchard (LIGAND) of radio-iodinated IL-5 on COS cells with IL-5R α-chain and ^418AAAYA^422 βc; single receptor class
IL-5R α-chain co-expressed with mutant ^418AAAYA^422 βc on COS cells (human), sequence (Q01344 21-420, stated change not applied, chain 1 of 2): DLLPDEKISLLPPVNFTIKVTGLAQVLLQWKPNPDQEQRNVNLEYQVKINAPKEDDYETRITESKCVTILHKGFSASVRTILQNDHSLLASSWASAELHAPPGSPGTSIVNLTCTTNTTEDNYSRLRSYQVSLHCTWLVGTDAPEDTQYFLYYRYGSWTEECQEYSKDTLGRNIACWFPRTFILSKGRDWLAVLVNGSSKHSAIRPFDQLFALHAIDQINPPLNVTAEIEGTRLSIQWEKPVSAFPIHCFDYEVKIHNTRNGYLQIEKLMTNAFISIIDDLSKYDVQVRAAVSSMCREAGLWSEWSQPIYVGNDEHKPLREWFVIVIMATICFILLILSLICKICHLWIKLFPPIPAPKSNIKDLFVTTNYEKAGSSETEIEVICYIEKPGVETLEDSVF
IL-5R α-chain co-expressed with mutant ^418AAAYA^422 βc on COS cells (human), sequence (P32927 other isoform, or with tags, fused parts or gaps mutant, chain 2 of 2, further chain): as the sequence (P32927 other isoform, or with tags, fused parts or gaps mutant, chain 2 of 2, further chain) above

[10] = biological target: IL-5R α-chain co-expressed with Y421A βc on COS cells (human) (UniProt Q01344); assay: Scatchard (LIGAND) of radio-iodinated IL-5 on COS cells with IL-5R α-chain and Y421A βc; single receptor class
IL-5R α-chain co-expressed with Y421A βc on COS cells (human), sequence (Q01344 21-420, chain 1 of 2): as the sequence (Q01344 21-420, stated change not applied, chain 1 of 2) above
IL-5R α-chain co-expressed with Y421A βc on COS cells (human), sequence (P32927 17-897 Y421A, chain 2 of 2, further chain): as the sequence (P32927 other isoform, or with tags, fused parts or gaps mutant, chain 2 of 2, further chain) above, with A402R, A403T, A404G, Y405A, A406N counted along it

[11] = biological target: T1, IL-3R α-chain expressed on cells without βc (UniProt P26951 19-378, limits assumed); assay: radioligand saturation binding, COS cells with α-chain only; range of affinities observed
T1 construct: whole, on cells; also called α-chain only; hIL-3Rα
T1 sequence (P26951 19-378 limits assumed): as the sequence (P26951 19-378, stated change not applied, chain 1 of 2) above

[12] = biological target: T2, IL-3R α-chain co-expressed with wild type βc on cells (human, UniProt P26951 19-378; P32927 17-897); assay: Scatchard (LIGAND) of 125I-IL-3 on COS cells with α-chains and wild type βc; high affinity site 1, low affinity site fixed at 50 nM
T2 construct: whole, on cells; The COS cells carried GM-CSFR and IL-3R α-chains together with βc; also called Wt βc
T2 sequence (P26951 19-378, chain 1 of 2): as the sequence (P26951 19-378, stated change not applied, chain 1 of 2) above
T2 sequence (P32927 17-897, chain 2 of 2): as the sequence (P32927 other isoform, or with tags, fused parts or gaps mutant, chain 2 of 2, further chain) above, with A402R, A403T, A404G, A406N counted along it

IL-3R α-chain co-expressed with R418A βc on COS cells (human), sequence (P26951 19-378, chain 1 of 2): as the sequence (P26951 19-378, stated change not applied, chain 1 of 2) above
IL-3R α-chain co-expressed with R418A βc on COS cells (human), sequence (P32927 17-897 R418A, chain 2 of 2, further chain): as the sequence (P32927 other isoform, or with tags, fused parts or gaps mutant, chain 2 of 2, further chain) above, with A403T, A404G, A406N counted along it
IL-3R α-chain co-expressed with T419A βc on COS cells (human), sequence (P26951 19-378, chain 1 of 2): as the sequence (P26951 19-378, stated change not applied, chain 1 of 2) above
IL-3R α-chain co-expressed with T419A βc on COS cells (human), sequence (P32927 17-897 T419A, chain 2 of 2, further chain): as the sequence (P32927 other isoform, or with tags, fused parts or gaps mutant, chain 2 of 2, further chain) above, with A402R, A404G, A406N counted along it

Work on “Human interleukin (IL)-3 (from UniProt P08700 20-152) (ligand)” yielded a Kd [1] of 0.151 nM, a fold reduction of high affinity binding against wild type βc [2] of 2 to 3 fold and a fold reduction of affinity against wild type high affinity binding [3] of 3 fold. For the same molecule, the Kd [4] was 0.196 nM, the Kd [5] was 0.511 nM and the STAT5-L activation (EMSA with STAT5 probe, phosphorimager) in transfected Jurkat cells; concentration for half maximal activation [6] was > 3 µM. The Kd [7] was 0.08 nM and the Kd [8] was 0.113 nM.

Work on “Human interleukin IL-5 (from UniProt P05113 20-134) (ligand)” yielded a Kd [9] of 0.71 nM and a Kd [10] of 1.86 nM.

B1: Human interleukin (IL)-3 (ligand, UniProt P08700 20-152, looked up)
chain: APMTQTTPLKTSWVNCSNMIDEIITHLKQPPLPLLDFNNLNGEDQDILMENNLRRPNLEAFNRAVKSLQNASAIESILKNLLPCLPLATAAPTRHPIHIKDGDWNEFRRKLTFYLKTLENAQAQQTTLSLAIF
modifications: radio-iodinated (125I) in the saturation binding studies
notes: unlabelled in the STAT5-L assays on Jurkat cells; also called ^125I-IL-3
B1 gave a Kd [11] of 20 to 100 nM and a Kd [12] of 0.141 nM.
